Where no end group is shown, it is not given here. [ ]: non-standard residue; d: D form.

The nature of series [1]: Toxicity study in mice (serum chemistries, histology). The class given is in vivo, mouse. The note with it: i.v. 110 μg, 500-fold the estimated human imaging dose; evaluated 24 h later. The method, then:
Toxicity studies were performed by S. Greco, DVM (Dept. of Comparative Med., Washington Univ.).

The target of series [2] is T1, CCR2 (Homo sapiens, UniProt P41597). The series is described as follows: Autoradiography on human lung tissue sections. Also noted: Fixed human lung tissue sections; from tissue; host or cells: human lung (COPD explants and donor lungs), fixed paraffin sections. The note with it: lung tissue from subjects with COPD. The class given is binding. Here is the method: Fixed human lung tissue sections that were deparaffinized and hydrated in PBS were incubated with ^64Cu-DOTA-ECL1i for 5 min (n=4 donor, n=6 COPD). […] Slides were washed 30 times with water then placed in an instant imager (Packard, Meriden, CT) for 30 minutes.
Target sequence in this assay (P41597 whole entry): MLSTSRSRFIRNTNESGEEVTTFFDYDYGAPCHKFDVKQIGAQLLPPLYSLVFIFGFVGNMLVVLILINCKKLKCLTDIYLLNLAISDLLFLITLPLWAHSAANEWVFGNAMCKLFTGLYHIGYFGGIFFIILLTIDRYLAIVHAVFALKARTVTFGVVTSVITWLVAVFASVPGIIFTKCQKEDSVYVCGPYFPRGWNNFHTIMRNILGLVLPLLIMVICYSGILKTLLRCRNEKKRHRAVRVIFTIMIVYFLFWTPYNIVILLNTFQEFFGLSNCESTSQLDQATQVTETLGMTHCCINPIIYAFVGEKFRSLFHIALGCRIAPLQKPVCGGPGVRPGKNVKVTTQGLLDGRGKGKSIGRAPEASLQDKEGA

The conditions of series [3]: mouse, in vivo.
Description: After euthanasia, 1 h post-radiotracer injection, organs of interest were collected, weighed and assayed by gamma counter (Beckman, Brea, CA) as described (23). Standards were prepared and measured in parallel to calculate the percentage of the injected dose per gram of tissue (% ID/g).
For series [4] the following is noted: mouse, in vivo. The method, then:
C57BL/6 mice were used for the biodistribution studies. About 10 μCi of ^64Cu-DOTA-ECL1i in 100 μL saline (APP pharmaceuticals, Schaumburg, IL) were injected via the tail vein. The mice were anesthetized with inhaled isoflurane and re-anesthetized before euthanasia by cervical dislocation at each time point (1 hour after injection, n=4/group). Organs of interest were collected, weighed and counted in a Beckman 8000 gamma counter (Beckman, Fullterton, CA).
This is another data set of the same source.

Series [5] has as its target T2, CCR2 (Mus musculus, UniProt P51683).
Description: Instead of a dynamic scan, a static scan was performed at 1, 4 and 24 hours after injection. The PET images were reconstructed with the maximum a posteriori algorithm and analyzed by Inveon Research Workplace. The organ uptake was calculated as percent injected dose per gram (% ID/g) of tissue in three-dimensional regions of interest without the correction for partial volume effect (14).
The target of another series is T3, human CCR1 (Homo sapiens, UniProt P32246).
T3 construct: expressed in transfected cells
T3 sequence (P32246 1-355): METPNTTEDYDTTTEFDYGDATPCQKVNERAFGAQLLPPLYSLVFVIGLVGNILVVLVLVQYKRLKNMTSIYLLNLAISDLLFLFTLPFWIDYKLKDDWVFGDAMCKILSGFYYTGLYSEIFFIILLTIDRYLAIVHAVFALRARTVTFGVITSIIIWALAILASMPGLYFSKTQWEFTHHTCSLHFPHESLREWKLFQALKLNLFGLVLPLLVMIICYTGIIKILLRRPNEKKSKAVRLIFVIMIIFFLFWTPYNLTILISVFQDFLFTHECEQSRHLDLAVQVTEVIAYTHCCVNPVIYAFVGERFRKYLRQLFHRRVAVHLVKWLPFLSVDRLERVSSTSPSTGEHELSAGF
Description: Migration of cells expressing human CCR1. The class given is cell-based.

Series [6] addresses T1, CCR2. Also noted: expressed in transfected cells; host or cells: HEK293. Particulars: compared to CCL2 ligand in vitro; cited from earlier work.
Target sequence in this assay (P41597 whole entry, species assumed): as the sequence (P41597 whole entry) above
The subject of series [7] is CCR2^+ inflammatory monocytes. Description: CCL2-mediated chemotaxis of monocytes. The class given is cell-based. The source says:
(§1) CCR2^+ cells migrate in response to CCL2.

In the next series the target is T4, human CX3CR1 (Homo sapiens, UniProt P49238).
T4 construct: expressed in transfected cells
T4 sequence (P49238 1-355): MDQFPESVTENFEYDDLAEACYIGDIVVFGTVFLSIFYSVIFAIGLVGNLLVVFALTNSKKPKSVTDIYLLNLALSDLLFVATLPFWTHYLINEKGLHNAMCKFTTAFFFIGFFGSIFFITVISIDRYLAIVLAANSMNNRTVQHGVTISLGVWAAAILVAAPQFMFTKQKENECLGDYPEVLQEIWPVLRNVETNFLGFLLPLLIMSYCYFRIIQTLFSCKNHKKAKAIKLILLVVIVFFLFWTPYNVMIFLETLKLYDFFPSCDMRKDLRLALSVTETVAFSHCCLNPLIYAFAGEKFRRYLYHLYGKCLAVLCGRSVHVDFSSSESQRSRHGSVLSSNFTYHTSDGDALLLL
Description: Migration of cells expressing human CX3CR1. Type of series: cell-based.

In series [8] the target is T1, CCR2. Description: Binding of fluorescently-labeled CCL1 to CCR2-expressing HEK293 cells. Further details: expressed in transfected cells; host or cells: HEK293.
Excerpt: as §1
Target sequence in this assay (P41597 whole entry, species assumed): as the sequence (P41597 whole entry) above

For series [9], the target named is T2, CCR2. The series is described as follows: PET/CT imaging in LPS mouse lung injury model. The class given is in vivo. The note with it: PET. Also noted: tissue The Jackson Laboratories; host or cells: C57BL/6 mice, lung and aortic arch in vivo (CCR2+ monocytes/macrophages). The source says: The Institutional Animal Care and Use Committee approved these studies. Wild type (n=77) and CCR2-deficient (CCR2^−/−, n=4) mice (C57BL6/J strain) were 8 to 12 weeks of age, of both sexes and approximately 25 g in weight. Mice were used for radiotracer stability studies (n=3) and lung injury studies that included: immunostaining for CCR2 (n=6), in vivo immune cell peptide binding (n=18), lung water weight measurements (n=6), in vivo biodistribution (n=12) and PET/CT imaging (n=36). For the lung injury studies, mice were not treated (naive, n=8), administered intratracheal vehicle control, phosphate buffered saline (PBS, 1 μL/g, n=26) or lipopolysaccharide (LPS, endotoxin, E. coli strain 055:B5, Sigma-Aldrich, St. Louis, MO), at a dose of 2.5 μg/g (n=44), “high” dose, 10 μg/g (n=3), or “low” dose, 0.5 μg/g (n=3) LPS. All CCR2-deficient mice were administered an LPS dose of 2.5 μg/g. Lung water was quantified using wet-to-dry weight ratios in PBS- or intermediate dose LPS-treated mice (n=3/group). Lungs were resected and weighted immediately, then compared to weights obtained after drying at 65° C. for 48 h.
Time-activity curves were calculated from the ROIs from PET images obtained in a subgroup (n=3/group) of the PBS- and LPS-treated mice undergoing imaging at 24 h. […]

Another series has as its target T5, human CCR5 (Homo sapiens, UniProt P51681).
T5 construct: expressed in transfected cells
Description: Migration of cells expressing human CCR5. Type of series: cell-based.

A further series deals with T6, human CCR2 (hCCR2) (Homo sapiens, UniProt P41597).
T6 construct: expressed in transfected cells; host or cells: CHO
T6 sequence (P41597 whole entry): as the sequence (P41597 whole entry) above
Description: CCL2-induced chemotaxis in CHO cells that stably express human CCR2. Type of series: cell-based.
Excerpt: as §1

For series [10], the system named is CD45^+ immune cells in COPD lung. The series is described as follows: Flow cytometry of cells digested from human COPD lung. Type of series: cell-based. Here is the method: There were three CCR2 phenotypes (high, intermediate, normal), with implications for future therapies. […] Our tissue bank also includes cells digested from lung for flow cytometry studies. […] We obtain approximately 6-8 explanted lungs per year from COPD subjects. We propose to also examine lung tissue incubated with ECL1i-647 and cells specific antibodies using two-photon microscopy to localize ECL1i.
A general note: In flow cytometry, cells or beads pass a laser one at a time.

The subject of series [11] is monocytes (Ly6G^lo, Ly6C^hi). The series is described as follows: Flow cytometry of lung immune cells binding ECL1i-Dylight 550 in vivo. Also noted: species or system mouse. The note with it: injected i.v. 24 h post LPS; lungs analyzed one hour later. The method, then: Mice (n=4 PBS, n=5 LPS) delivered intratracheal PBS or LPS, and 24 hours later were injected intravenously with ECL1i labeled with Dylight 550 (100 μg) to determine the type of inflammatory cell binding ECL1i. Other mice were treated in parallel but not given ECL1i-Dylight 550 (n=4 PBS, n=5 LPS). One h post-injection, a single cell suspension was produced from the lungs, immunostained with immune cell markers (TABLE 2) and analyzed by flow cytometry.
Mice delivered intratracheal PBS or LPS were injected intravenously with ECL1i labeled with Dylight 550, as with the radiolabeled probe, to determine the type of inflammatory cell binding ECL1i. […] Cells were suspended in FACS buffer, counted by hemocytometer, and prepared for flow cytometry. […] Counts from 1 to 10×10^4 cells were collected for each sample on a FACSCalibur (Becton Dickinson), dual laser, flow cytometer using CellQuest Pro software (BD Biosciences), and analyzed using FlowJo software (Ashland, OR). The mean fluorescent intensity was determined by calculating the geometric mean of Dylight 550 fluorescence of the cell types identified in ECL1i-Dylight 550-injected mice and subtracting the fluorescent background of the same cell types from similarly treated mice not injected with ECL1i-Dylight 550.

T2 sequence (P51683 whole entry): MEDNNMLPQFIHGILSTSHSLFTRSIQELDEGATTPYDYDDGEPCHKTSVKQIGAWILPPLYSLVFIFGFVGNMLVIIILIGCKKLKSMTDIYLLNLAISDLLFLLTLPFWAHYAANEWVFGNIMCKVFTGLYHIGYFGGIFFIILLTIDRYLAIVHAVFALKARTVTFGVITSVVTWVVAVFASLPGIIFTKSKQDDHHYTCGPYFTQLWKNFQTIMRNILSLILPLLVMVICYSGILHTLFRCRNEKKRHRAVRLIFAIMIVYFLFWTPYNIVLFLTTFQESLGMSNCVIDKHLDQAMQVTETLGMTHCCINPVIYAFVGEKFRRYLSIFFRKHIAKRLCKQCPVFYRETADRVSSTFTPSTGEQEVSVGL
T5 sequence (P51681 whole entry): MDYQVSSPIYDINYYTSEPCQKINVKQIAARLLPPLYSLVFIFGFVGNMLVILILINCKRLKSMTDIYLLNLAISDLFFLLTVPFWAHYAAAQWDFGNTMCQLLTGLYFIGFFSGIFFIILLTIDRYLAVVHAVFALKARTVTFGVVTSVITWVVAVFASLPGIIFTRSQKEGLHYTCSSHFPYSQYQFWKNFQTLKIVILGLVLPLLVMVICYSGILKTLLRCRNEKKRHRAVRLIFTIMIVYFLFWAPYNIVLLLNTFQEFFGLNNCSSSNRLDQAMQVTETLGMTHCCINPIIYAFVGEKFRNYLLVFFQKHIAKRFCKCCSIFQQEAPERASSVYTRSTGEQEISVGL

Regarding `CC(C)C[C@@H](N)C(=O)NCC(=O)N[C@@H](C(=O)N[C@H](Cc1ccccc1)C(=O)N[C@H](CC(C)C)C(=O)N[C@H](CCCCN)C(=O)N[C@H](CSC1CC(=O)N(CCNC(=O)CN2CCN(CC(=O)O)CCN(CC(=O)O)CCN(CC(=O)O)CC2)C1=O)C(=O)O)[C@H](C)O` (single isomer, unassigned) [Cu-DOTA-ECL1i], in series [1], the toxicity findings entry was “normal serum hepatic and renal chemistries, and histologic examination of lung, liver and kidneys”.
With `CC(C)C[C@@H](N)C(=O)NCC(=O)N[C@@H](C(=O)N[C@H](Cc1ccccc1)C(=O)N[C@H](CC(C)C)C(=O)N[C@H](CCCCN)C(=O)N[C@H](CSC1CC(=O)N(CCNC(=O)CN2CCN(CC(=O)O)CCN(CC(=O)O)CCN(CC(=O)O)CC2)C1=O)C(=O)O)[C@H](C)O` (single isomer, unassigned) [^64Cu-DOTA-ECL1i, metal not drawn], the “specificity determined by non-radioactive blockade” value on CCR2 [2] is reported as 54.5%. Moreover, in series [3], the “blood retention, LPS versus PBS treated mice” value is given as “no difference in blood retention”. In [4], the “uptake in the donor lung relative to native lung (biodistribution)” value was “more than twice”. Besides, the “PET signal in the grafts blocked by competitive receptor blocking” value at CCR2 [5] (transplantation into wild type recipients, excess ECL1i) is recorded as “approximately 75%”.
For the compound “DLeu-Gly-DThr-DPhe-DLeu-DLys-DCys ([dL]G[dT][dF][dL][dK][dC]) [ECL1i]”, the inhibition of migration entry with human CCR1, with human CX3CR1 and in the series with human CCR5 was “did not inhibit the migration” each time. Besides, the CCR2 binding mode entry with CCR2 [6] is “selectively bind CCR2 in a non-competitive way”. In addition, the “inhibition of CCL2-mediated chemotaxis of monocytes” value in series [7] was “inhibited CCL2-mediated chemotaxis of CCR2^+ inflammatory monocytes, but not of resident monocytes”. Besides, the “effect on binding of fluorescently-labeled CCL1” value with CCR2 [8] is listed as “did not prevent the binding”. The “activity in lungs after intratracheal lipopolysaccharide relative to saline control group” value in the series with CCR2 [9] was 3.5 fold. In addition, the “induction of migration of CHO-hCCR2 cells” value in the series with human CCR2 (hCCR2) (at concentrations that inhibited CCL2 signaling) is listed as “did not induce the migration”. For the same compound, the “inhibition of CCL2-induced chemotaxis” value with human CCR2 (hCCR2) (concentration-dependent manner) is on record as “specifically inhibited CCL2-induced chemotaxis”. In series [10], the “binding to human lung cells” value was “bound a population of CD45^+ immune cells”.
As for “ECL1i-Dylight 550: Maleimide-modified Dylight 550 conjugated to ECL1i on the cysteine residue ([dL]G[dT][dF][dL][dK][dC](Dylight 550 maleimide))”, the “binding to monocytes (Ly6G^lo, Ly6C^hi) induced by LPS” value in series [11] is reported as “significant binding”.
Consider “^64CuAuNCs-ECL1i: ECL1i-conjugated gold nanoclusters doped with ^64Cu; multivalent targeted nanocluster ([dL]G[dT][dF][dL][dK][dC]; also: joined via TA-PEG-Maleimide to a gold nanocluster doped with 64Cu, attachment site not given here)”, for which the “retention in the blood relative to monovalent ^64Cu-DOTA-ECL1i” value in series [4] is listed as “six-fold higher”. In addition, the “share of accumulation in pulmonary grafts due to CCR2-mediated uptake” value with CCR2 [5] (accumulation of ^64CuAuNCs in native lungs set as background) was “more than 80%”.

The values above are taken from patent publication US12016935B2, “Methods for detecting CCR2 receptors” (Washington University, priority 2016, dated 2024).
